How the values were obtained:
[1] = Binding to sugar chains, summary of Tables 2 to 5
Experimental: (§1) Details of the FAC method are described in Patent Document 2 filed by some of the present applicants, for example.
(§2) Binding constants (at 25° C.) of PhoSL, SRL, NSL and LSL belonging to the fucose α1→6 specific lectin for various sugar chains are shown in Tables 2 to 5.
The AAL and AOL bind to the fucose α1→6 sugar chains (sugar chains No. 015, 201 to 203, and 401 to 418), as well as to the glycolipid-type sugar chain excluding the fucose α1→6 (sugar chains No. 718, 722, 723, 727, 909, 910 and 933). The LCL and PSL bind to the fucose α1→6 sugar chain, as well as to sugar chain excluding the α1→6 fucose (sugar chains No. 003, and 005 to 014).
Furthermore, the binding constant of the fucose α1→6 specific lectin is not decreased even if a sialic acid is added to the fucose α1→6 sugar chain (sugar chains No. 601 and 602). In addition, the fucose α1→6 specific lectin also strongly binds to the triple-strand (sugar chains No. 407 to 413) and the four-strand (sugar chains No. 418) of the fucose uα1→6 sugar chain.

FAC binding constant = details: at 25° C.
Experimental: as §1, §2

[2] = FAC binding constant (Table 5 entry); details: Table 5: sugar chain having no fucose; at 25° C.
Experimental: as §1, §2

[3] = sugar chain having fucose other than α1→6 fucose

B1: PSL: Pisum sativum lectin, affinity for fucose α1→6 but not specific (protein, UniProt P02867 31-217; P02867 218-275, looked up)
Lectin beta chain: TETTSFLITKFSPDQQNLIFQGDGYTTKEKLTLTKAVKNTVGRALYSSPIHIWDRETGNVANFVTSFTFVINAPNSYNVADGFTFFIAPVDTKPQTGGGYLGVFNSAEYDKTTQTVAVEFDTFYNAAWDPSNRDRHIGIDVNSIKSVNTKSWKLQNGEEANVVIAFNAATNVLTVSLTYPNSLEEEN
Lectin alpha chain: VTSYTLSDVVSLKDVVPEWVRIGFSATTGAEYAAHEVLSWSFHSELSGTSSSKQAADA
31000 M⁻¹: Binding constant for sugar chain No. 601 (FAC binding constant; sugar chain having α1→6 fucose)
bind: binding to sugar chain excluding the α1→6 fucose (in words) ([1]; sugar chains No. 003, and 005 to 014 for LCL and PSL) | binding to the fucose α1→6 sugar chains (in words) ([1]; sugar chains No. 015, 201 to 203, and 401 to 418)
48000 M⁻¹: Binding constant for sugar chain No. 402 (FAC binding constant; sugar chain having α1→6 fucose)
29000 M⁻¹: Binding constant for sugar chain No. 602 (FAC binding constant; sugar chain having α1→6 fucose)
8600 M⁻¹: Binding constant for sugar chain No. 014 (FAC binding constant; sugar chain having no fucose)
2400 M⁻¹: Binding constant for sugar chain No. 307 (FAC binding constant; sugar chain having no fucose)
44000 M⁻¹: Binding constant for sugar chain No. 202 (FAC binding constant; sugar chain having α1→6 fucose)
13000 M⁻¹: Binding constant for sugar chain No. 406 (FAC binding constant; sugar chain having α1→6 fucose)
7900 M⁻¹: Binding constant for sugar chain No. 009 (FAC binding constant; sugar chain having no fucose)
7400 M⁻¹: Binding constant for sugar chain No. 005 (FAC binding constant; sugar chain having no fucose)
120000 M⁻¹: Binding constant for sugar chain No. 015 (FAC binding constant; sugar chain having α1→6 fucose)
45000 M⁻¹: Binding constant for sugar chain No. 404 (FAC binding constant; sugar chain having α1→6 fucose)
7800 M⁻¹: Binding constant for sugar chain No. 003 (FAC binding constant; sugar chain having no fucose) | Binding constant for sugar chain No. 007 (FAC binding constant; sugar chain having no fucose)
25000 M⁻¹: Binding constant for sugar chain No. 203 (FAC binding constant; sugar chain having α1→6 fucose)
38000 M⁻¹: Binding constant for sugar chain No. 403 (FAC binding constant; sugar chain having α1→6 fucose)
36000 M⁻¹: Binding constant for sugar chain No. 405 (FAC binding constant; sugar chain having α1→6 fucose)
10000 M⁻¹: Binding constant for sugar chain No. 008 (FAC binding constant; sugar chain having no fucose)
92000 M⁻¹: Binding constant for sugar chain No. 401 (FAC binding constant; sugar chain having α1→6 fucose)
17000 M⁻¹: Binding constant for sugar chain No. 012 (FAC binding constant; sugar chain having no fucose)
7100 M⁻¹: Binding constant for sugar chain No. 006 (FAC binding constant; sugar chain having no fucose)
<1000 M⁻¹: Binding constant for sugar chain No. 728 (FAC binding constant; Table 3: sugar chain having fucose other than α1→6 fucose) | Binding constant for sugar chain No. 419 (FAC binding constant; [3]) | Binding constant for sugar chain No. 420 (FAC binding constant; [3]) | Binding constant for sugar chain No. 718 (FAC binding constant; [3]) | Binding constant for sugar chain No. 719 (FAC binding constant; [3]) | Binding constant for sugar chain No. 720 (FAC binding constant; [3]) | Binding constant for sugar chain No. 721 (FAC binding constant; [3]) | Binding constant for sugar chain No. 722 (FAC binding constant; [3]) | Binding constant for sugar chain No. 723 (FAC binding constant; [3]) | Binding constant for sugar chain No. 726 (FAC binding constant; [3]) | Binding constant for sugar chain No. 727 (FAC binding constant; [3]) | Binding constant for sugar chain No. 729 (FAC binding constant; [3]) | Binding constant for sugar chain No. 730 (FAC binding constant; [3]) | Binding constant for sugar chain No. 731 (FAC binding constant; [3]) | Binding constant for sugar chain No. 739 (FAC binding constant; [3]) | Binding constant for sugar chain No. 909 (FAC binding constant; [3]) | Binding constant for sugar chain No. 910 (FAC binding constant; [3]) | Binding constant for sugar chain No. 931 (FAC binding constant; [3]) | Binding constant for sugar chain No. 932 (FAC binding constant; [3]) | Binding constant for sugar chain No. 933 (FAC binding constant; [3]) | Binding constant for sugar chain No. 001 (FAC binding constant; sugar chain having no fucose) | Binding constant for sugar chain No. 002 (FAC binding constant; sugar chain having no fucose) | Binding constant for sugar chain No. 004 (FAC binding constant; sugar chain having no fucose) | Binding constant for sugar chain No. 010 (FAC binding constant; sugar chain having no fucose) | Binding constant for sugar chain No. 011 (FAC binding constant; sugar chain having no fucose) | Binding constant for sugar chain No. 013 (FAC binding constant; sugar chain having no fucose) | Binding constant for sugar chain No. 101 (FAC binding constant; sugar chain having no fucose) | Binding constant for sugar chain No. 103 (FAC binding constant; sugar chain having no fucose) | Binding constant for sugar chain No. 104 (FAC binding constant; sugar chain having no fucose) | Binding constant for sugar chain No. 105 (FAC binding constant; sugar chain having no fucose) | Binding constant for sugar chain No. 107 (FAC binding constant; sugar chain having no fucose) | Binding constant for sugar chain No. 108 (FAC binding constant; sugar chain having no fucose) | Binding constant for sugar chain No. 301 (FAC binding constant; sugar chain having no fucose) | Binding constant for sugar chain No. 304 (FAC binding constant; sugar chain having no fucose) | Binding constant for sugar chain No. 305 (FAC binding constant; sugar chain having no fucose) | Binding constant for sugar chain No. 308 (FAC binding constant; sugar chain having no fucose) | Binding constant for sugar chain No. 313 (FAC binding constant; sugar chain having no fucose) | Binding constant for sugar chain No. 314 (FAC binding constant; sugar chain having no fucose) | Binding constant for sugar chain No. 323 (FAC binding constant; sugar chain having no fucose) | Binding constant for sugar chain No. 501 (FAC binding constant; sugar chain having no fucose) | Binding constant for sugar chain No. 502 (FAC binding constant; sugar chain having no fucose) | Binding constant for sugar chain No. 503 (FAC binding constant; sugar chain having no fucose) | Binding constant for sugar chain No. 504 (FAC binding constant; sugar chain having no fucose) | Binding constant for sugar chain No. 701 (FAC binding constant; sugar chain having no fucose) | Binding constant for sugar chain No. 702 (FAC binding constant; sugar chain having no fucose) | Binding constant for sugar chain No. 703 (FAC binding constant; sugar chain having no fucose) | Binding constant for sugar chain No. 704 (FAC binding constant; sugar chain having no fucose) | Binding constant for sugar chain No. 705 (FAC binding constant; sugar chain having no fucose) | Binding constant for sugar chain No. 706 (FAC binding constant; sugar chain having no fucose) | Binding constant for sugar chain No. 707 (FAC binding constant; sugar chain having no fucose) | Binding constant for sugar chain No. 708 (FAC binding constant; sugar chain having no fucose) | Binding constant for sugar chain No. 709 (FAC binding constant; sugar chain having no fucose) | Binding constant for sugar chain No. 710 (FAC binding constant; sugar chain having no fucose) | Binding constant for sugar chain No. 711 (FAC binding constant; sugar chain having no fucose) | Binding constant for sugar chain No. 712 (FAC binding constant; sugar chain having no fucose) | Binding constant for sugar chain No. 713 (FAC binding constant; sugar chain having no fucose) | Binding constant for sugar chain No. 715 (FAC binding constant; sugar chain having no fucose) | Binding constant for sugar chain No. 716 (FAC binding constant; sugar chain having no fucose) | Binding constant for sugar chain No. 717 (FAC binding constant; sugar chain having no fucose) | Binding constant for sugar chain No. 724 (FAC binding constant; sugar chain having no fucose) | Binding constant for sugar chain No. 725 (FAC binding constant; sugar chain having no fucose) | Binding constant for sugar chain No. 732 (FAC binding constant; sugar chain having no fucose) | Binding constant for sugar chain No. 733 (FAC binding constant; sugar chain having no fucose) | Binding constant for sugar chain No. 734 (FAC binding constant; sugar chain having no fucose) | Binding constant for sugar chain No. 735 (FAC binding constant; sugar chain having no fucose) | Binding constant for sugar chain No. 736 (FAC binding constant; sugar chain having no fucose) | Binding constant for sugar chain No. 737 (FAC binding constant; sugar chain having no fucose) | Binding constant for sugar chain No. 738 (FAC binding constant; sugar chain having no fucose) | Binding constant for sugar chain No. 901 (FAC binding constant; sugar chain having no fucose) | Binding constant for sugar chain No. 902 (FAC binding constant; sugar chain having no fucose) | Binding constant for sugar chain No. 903 (FAC binding constant; sugar chain having no fucose) | Binding constant for sugar chain No. 905 (FAC binding constant; sugar chain having no fucose) | Binding constant for sugar chain No. 906 (FAC binding constant; sugar chain having no fucose) | Binding constant for sugar chain No. 907 (FAC binding constant; sugar chain having no fucose) | Binding constant for sugar chain No. 407 (FAC binding constant; sugar chain having α1→6 fucose) | Binding constant for sugar chain No. 410 (FAC binding constant; sugar chain having α1→6 fucose) | Binding constant for sugar chain No. 413 (FAC binding constant; sugar chain having α1→6 fucose) | Binding constant for sugar chain No. 418 (FAC binding constant; sugar chain having α1→6 fucose) | Binding constant for sugar chain No. 728 [2]
100000 M⁻¹: Binding constant for sugar chain No. 201 (FAC binding constant; sugar chain having α1→6 fucose)

Reference: patent US20200264182A1, “METHOD FOR DETECTING PROSTATE CANCER” (J-OIL MILLS, INC., priority 2017, published 2020)
